What was measured:
[1] = target: recombinant murine 18.5-kDa myelin basic protein, C1 charge isomer analogue (rmC1) (mouse) (UniProt P04370); assay: ITC; CaM (100 µM) in the syringe titrated into rmMBP (5 µM) in the cell; 20 mM HEPES pH 7.5, 100 mM NaCl, 10 mM CaCl2; one-site model with floating, apparent stoichiometry; +15°C
[2] = target: recombinant murine 18.5-kDa myelin basic protein, pseudodeiminated C8 charge isomer analogue (rmC8) (mouse); assay: as above
[3] = target: recombinant murine 18.5-kDa myelin basic protein, C1 charge isomer analogue (rmC1) (mouse) (UniProt P04370); assay: ITC; CaM (100 µM) in the syringe titrated into rmMBP (5 µM) in the cell; 20 mM HEPES pH 7.5, 100 mM NaCl, 10 mM CaCl2; one-site model with floating, apparent stoichiometry; 35°C (temperature from Table 3)
[4] = target: recombinant murine 18.5-kDa myelin basic protein, pseudodeiminated C8 charge isomer analogue (rmC8) (mouse); assay: as above
[5] = target: recombinant murine 18.5-kDa myelin basic protein, C1 charge isomer analogue (rmC1) (mouse) (UniProt P04370); assay: ITC; CaM (100 µM) in the syringe titrated into rmMBP (5 µM) in the cell; 20 mM HEPES pH 7.5, 100 mM NaCl, 10 mM CaCl2; one-site model with floating, apparent stoichiometry; +20°C
[6] = target: recombinant murine 18.5-kDa myelin basic protein, pseudodeiminated C8 charge isomer analogue (rmC8) (mouse); assay: as above
[7] = target: recombinant murine 18.5-kDa myelin basic protein, C1 charge isomer analogue (rmC1) (mouse) (UniProt P04370); assay: SEC; Superdex 200 HR 10/30, room temperature; 20 mM HEPES pH 7.5, 100 mM NaCl, 10 mM CaCl2; rmMBP 25 µM with CaM 12.5-125 µM (rmMBP:CaM 2:1, 1:1, 1:2, 1:3, 1:5)
[8] = target: recombinant murine 18.5-kDa myelin basic protein, pseudodeiminated C8 charge isomer analogue (rmC8) (mouse); assay: as above
[9] = target: recombinant murine 18.5-kDa myelin basic protein, C1 charge isomer analogue (rmC1) (mouse) (UniProt P04370); assay: ITC; CaM (100 µM) in the syringe titrated into rmMBP (5 µM) in the cell; 20 mM HEPES pH 7.5, 100 mM NaCl, 10 mM CaCl2; one-site model with floating, apparent stoichiometry; +30°C
[10] = target: recombinant murine 18.5-kDa myelin basic protein, pseudodeiminated C8 charge isomer analogue (rmC8) (mouse); assay: as above
[11] = target: recombinant murine 18.5-kDa myelin basic protein, C1 charge isomer analogue (rmC1) (mouse) (UniProt P04370); assay: ITC; CaM (100 µM) in the syringe titrated into rmMBP (5 µM) in the cell; 20 mM HEPES pH 7.5, 100 mM NaCl, 10 mM CaCl2; one-site model with floating, apparent stoichiometry; +25°C
[12] = target: recombinant murine 18.5-kDa myelin basic protein, pseudodeiminated C8 charge isomer analogue (rmC8) (mouse); assay: as above
calmodulin = calmodulin (UniProt P0DP23); settings: cited from earlier work

Chain of recombinant murine 18.5-kDa myelin basic protein, C1 charge isomer analogue (rmC1) (mouse) (P04370 other isoform, or with tags, fused parts or gaps): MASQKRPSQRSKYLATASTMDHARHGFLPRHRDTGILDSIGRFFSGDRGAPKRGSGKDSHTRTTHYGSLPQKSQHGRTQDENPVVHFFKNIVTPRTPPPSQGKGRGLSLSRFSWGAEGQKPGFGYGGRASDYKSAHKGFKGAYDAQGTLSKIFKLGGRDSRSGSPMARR

| stoichiometry N [1] | Kd [2] [nM] | stoichiometry N [2] | stoichiometry N [3] | Kd [4] [nM] | stoichiometry N [4] | stoichiometry N [5] | stoichiometry N [6] | stoichiometry N [7] | stoichiometry N [8] | stoichiometry N [9] | stoichiometry N [10] | stoichiometry N [11] | stoichiometry N [12] | Substance | Kd (calmodulin) [nM] |
| --- | --- | --- | --- | --- | --- | --- | --- | --- | --- | --- | --- | --- | --- | --- | --- |
| 1.5 | 1200 | 1.5 | 0.9 | 1900 | 0.8 | 1.5 | 1.3 | 2 | 2 | 1.4 | 1 | 1.9 | 1.2 | calmodulin (CaM), recombinant (from UniProt P0DP23 1-149) (natural protein) | – |
| – | – | – | – | – | – | – | – | – | – | – | – | – | – | myelin basic protein (brain) (from UniProt P02687) | 10 |

Reference: article PMC3102069, “Charge Isomers of Myelin Basic Protein: Structure and Interactions with Membranes, Nucleotide Analogues, and Calmodulin” (PLoS ONE, 2011)
